Assay results published in patent US20190314417A1, “IMMUNOSUPPRESSIVE MESENCHYMAL CELLS AND METHODS FOR FORMING SAME” (The Trustees of Columbia University In The City of New York, priority 2016, published 2019).
Where a name gives a salt, the structure may show the parent alone.

Columns and labels:
Type in all cases: cell-based, human
GLUT1 = assay: Hypoxia mimetic titration: GLUT1 in MSCs; conditions: different concentrations, FIG. 24
Procedure: Studies were carried out to determine the effect of hypoxia mimicking agents CoCl2 and DFO on MSCs (FIG. 24).

[1] = system: CD4+ and CD8+ T-cell division; assay: Lactic acid titration: T-cell division in response to Concanavalin A; conditions: ConA 5 μg/mL, Day 3
Procedure: PBMCs were thawed, as previously described, and stained in HEPES buffered saline at 37° C. for 30 minutes with pHrodo® Red AM (Thermo Fisher) as per manufacturer's instructions (1000× dilution of dye). […] Cells were resuspended in these new media and incubated at 37° C. for 30 minutes. Immediately prior to each flow cytometry reading, each sample was diluted 1:9 with BD Stain Buffer and mixed well. This neutralized external pH and diluted media components without permitting time for intracellular lactate to be exported. […] Cells were plated in 96-well U-bottom plates at 200 000 cells per well. ConA was added to be 5 μg/mL, and PBMCs were analyzed by flow cytometry on Day 3.

T-cells = assay: Lactic acid titration: intracellular pH and scatter of T-cells (pHrodo Red AM); conditions: fresh complete AIM-V media, 30 minutes
IDO [2] = assay: IFN-γ titration: IDO expression in MSCs by flow cytometry; conditions: 48 hours of exposure
Procedure: (§1) Titration studies were carried out to determine whether IFN-γ at different concentrations or for different time periods had differential effects on MSC expression of IDO and/or PD-L1 (FIGS. 22 & 23). […] Thus, the IFN-γ dose could be used in a range of 0.1 ng/mL to 100 ng/mL for future animal and human studies, while still reproducing the same beneficial phenotype, with the lower end of that range more likely to mimic physiologic conditions in humans. […] Therefore, priming of MSCs may be carried out for less than 48 hours to achieve biological effects.

IDO [3] = assay: Onset kinetics of IDO expression in MSCs exposed to IFN-γ; conditions: 10 ng/mL IFN-γ
Procedure: as §1

PD-L1 = assay: Onset kinetics of PD-L1 expression in MSCs exposed to IFN-γ; conditions: 10 ng/mL IFN-γ
Procedure: as §1

Molecule: [Cl][Co][Cl] [CoCl2, cobalt chloride]
- GLUT1 upregulation in MSCs (GLUT1): able to upregulate GLUT 1

Molecule: C[C@H](O)C(=O)O [lactic acid, L-lactic acid]
- T-cell division at lactate 15 mM ([1]; lactate concentration of 15 mM): almost completely eliminated
- T-cell division, % of the maximum rate ([1]; lactic acid concentration not given): 30-45%
- extracellular lactic acid level at which drop in T-cell pHi started to become pronounced (T-cells): 15 mM

Molecule: CC(=O)N(O)CCCCCNC(=O)CCC(=O)N(O)CCCCCNC(=O)CCC(=O)N(O)CCCCCN [DFO, deferoxamine mesylate/desferrioxamine]
- GLUT1 upregulation in MSCs (GLUT1): able to upregulate GLUT 1

B1: IFN-γ: pro-inflammatory cytokine (Peprotech) used to prime MSCs (protein, UniProt P01579 24-161, looked up)
Interferon gamma: QDPYVKEAENLKKYFNAGHSDVADNGTLFLGILKNWKEESDRKIMQSQIVSFYFKLFKNFKDDQSIQKSVETIKEDMNVKFFNSNKKKRDDFEKLTNYSVTDLNVQRKAIHELIQVMAELSPAAKTGKRKRSQMLFRG
- IDO induction at 0.1 ng/mL (IDO [2]; 0.1 ng/mL): significant induction
- IFN-γ concentration required for maximum IDO induction (IDO [2]): at least 1 ng/mL
- exposure time after which IDO is already upregulated (IDO [3]): 6 h
- exposure time required for maximum IDO expression (IDO [3]): 48 h
- exposure time after which PD-L1 is already upregulated (PD-L1): 6 h
- exposure time required for maximum PD-L1 expression (PD-L1): 48 h
